In one series the test system is hydra. In words: Injection of Sandercyanin protein into hydra, fluorescence localization. It counts as in vivo. Conditions: injected into hydra. The source says:
We are currently imploring the localization of Sandercyanin in model organisms.

For series [1] the following is noted: on excitation at 380 nm and 630 nm; cited from earlier work.
Series [2] can be described thus: Spectral properties (absorption and fluorescence emission) of Sandercyanin protein. It counts as physicochemical.
The mark [3] stands for this setting: band maximum used for Stokes shift.

B1: Sandercyanin protein: native blue fluorescent bili-binding lipocalin protein from walleye mucus, SEQ ID NO: 1 (protein)
chain: QFIKPGRCPKPAVQEDFDAARYLGVWYDIQRLPNKFQKGECATATYSLSPGVGFSVFNRERLANGTIKSVIGSAIAEDPCEPAKLQFFHENAAPVPYWVLSTDYDNYALVYSCINLGASHAAYASIVSRQPTLPEETIKKLQGTMSSFGVGVDTLLTTNQDAAYCSAMNQ
modifications: Sandercyanin
For the molecule B1, the fluorescence after injection result with hydra is “showed fluorescence on the surface of tentacles”. In series [1], the emission maxima was 678 nm. Besides, in series [2] (setting [3]), the absorption is 375 nm and the emission worked out at 675 nm. In addition, in series [2] (difference between absorption and emission band maxima), the Stokes shift is ~300 nm.
